# Data as given in patent US20260226142A1.
# B1: Bm28H12 (VHH)
# VHH: QVQLVESGGSVVQAGGSLRLSCTASGRNFNSYAMGWFRRPPGEQRDFIAAIIRSTGKTTYADSDSVKGRFTISKDSSGNTVYLQMNNLKPEDTAIYYCAGGDAGPYAFGYDYWGQGTQVTVSS
# Target: Cys-HLA (Staphylococcus aureus)
binder,measurement,value
B1,Kd,0.1 nM
